Measured values from patent publication US8512970B2, “Rapid bioluminescence detection assay” (The Secretary of State for Health, priority 2009, dated 2013).

B1: T. maritima: Adenylate kinase (AK) from Thermotoga maritima, monomer; reporter kinase (protein, UniProt Q9X1I8 1-220, looked up)
Adenylate kinase: MMAYLVFLGPPGAGKGTYAKRLQEITGIPHISTGDIFRDIVKKENDELGKKIKEIMERGELVPDELVNEVVKRRLSEKDCERGFILDGYPRTVAQAEFLDGFLKTQNKELTAAVLFEVPEEVVVQRLTARRICPKCGRIYNLISLPPKEDELCDDCKVKLVQREDDKEETVRHRYKVYLEKTQPVIDYYDKKGILKRVDGTIGIDNVIAEVLKIIGWSDK
B2: S. acidocaldarius: Adenylate kinase (AK) from Sulfolobus acidocaldarius, trimer; reporter kinase (protein, UniProt P35028 1-194, looked up)
Adenylate kinase: MKIGIVTGIPGVGKSTVLAKVKEILDNQGINNKIINYGDFMLATALKLGYAKDRDEMRKLSVEKQKKLQIDAAKGIAEEARAGGEGYLFIDTHAVIRTPSGYLPGLPSYVITEINPSVIFLLEADPKIILSRQKRDTTRNRNDYSDESVILETINFARYAATASAVLAGSTVKVIVNVEGDPSIAANEIIRSMK

Experiment: Isoelectric point of reporter kinases (Table 2)
Format: physicochemical

Row | Molecule | pI Actual (if known)
1 | B1 | ~6.7
2 | B2 | > 10
